Experimental data: paper PMC5955193, “Streptococcus gallolyticus subsp. gallolyticus endocarditis isolate interferes with coagulation and activates the contact system” (Virulence, 2017)

Assays:
[1] = target: T1, human coagulation factor XII (human); assay: SPR; Biacore 3000, CM3 chip, Gallo2179 immobilised (1900 RUs) by amine coupling; FXII as analyte at 12.5 - 200 nM; 25°C, PBS running buffer; 1:1 Langmuir global fit; conditions: both partners purified
T1 construct: coagulation factor XII (serine protease zymogen), human; also called FXII; contact factor XII; source: bought: Haemochrom Diagnostica, Germany

[2] = target: T1, human coagulation factor XII; assay: MST; NT-647 labeled Gallo2179 kept constant (estimated 50-300 nM); 16-step serial dilution of non-labeled FXII (6.25 μM - 0.19 nM) or HK (4.15 μM - 0.12 nM); Monolith NT.115; three independent measurements; conditions: both partners purified

B1: Pil1 collagen-binding adhesin Gallo2179 of Streptococcus gallolyticus subsp. gallolyticus UCN34, recombinant (natural protein)
chain: MFYYLGEGIINFRKLFIALVLIIFSFFTVSEVRAADVSNRVTSLTVATTELQDGGRTTVRVEFNDRAGKIHSGDTIEVTWSISNSIYLNGYTKSIPLTIQGVNVGTLEVTEHNAIFKFNSNIETMENVSGWGEFEVIGRNVTNTSSENTGTAVVQVGGYSQNISITKPQSGTGTSSFYYKTGDIQPSDTNRVRWFLLVNNNKEYVESDVTIEDDIQSGQTLDMSSFDITISGYQNKRFVGESALEEFKRSCPNSSIEITQKSEGGHISIRLSRDDVILNTISIHYKTKILDFDQEKFANNSNITYKPLYKDWVTNKESNYEVVNVNANGGVDGSRYTSVTVNKVWNDKDNQDGKRSDKVVIQLLADGQEISGKQLELSEENGWSGTFEKLNKYHSDNTLITYTVKEVTDLPDYQTTVSENSKNNYTITNTHIPEVIDLSGKKIWDDNNNQDGIRPETITVHLLANGVDTGQVKTVSKSDNWEYQFKDLPKYQNGEKVVYTVSEDVVVGYEMSVSGMNLTNTHTPEVTNILISKYWDDNDDKLKKRPESIQITLHANGKEYQTVTLTASNQWQYEFKDLPKYKDGEKIAYTVTEADVPNYQLISIEEDESGNWKITNKVEESYLFPNTGGKGISGYYTVGIVLLLSIGLLFLKKFIGDY
modifications: fluorescent label NT-647 covalently attached by NHS coupling (in the MST only)
- Kd [1]: 14 nM
- Kd [2]: 12.9 nM
